Measured values reported in patent publication US20250084164A1 (NEXTCURE, published 2025).

T1: monomeric LAIR-1-His (R&D Systems) (UniProt Q6GTX8 22-163)
T1 chain: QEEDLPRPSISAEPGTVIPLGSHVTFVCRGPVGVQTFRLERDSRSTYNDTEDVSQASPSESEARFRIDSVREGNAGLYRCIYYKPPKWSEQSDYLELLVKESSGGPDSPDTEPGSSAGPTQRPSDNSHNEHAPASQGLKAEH

T2: monomeric LAIR-1-His (R&D Systems) (UniProt Q6GTX8 22-163, limits assumed)
T2 construct: Bought protein
T2 sequence (looked up): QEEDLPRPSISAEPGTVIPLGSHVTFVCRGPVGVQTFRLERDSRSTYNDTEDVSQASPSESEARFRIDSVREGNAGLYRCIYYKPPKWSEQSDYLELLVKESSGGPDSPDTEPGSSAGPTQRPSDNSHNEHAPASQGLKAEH


How the values were obtained:
[1] = target: T1, monomeric LAIR-1-His (R&D Systems); assay: BLI (Octet RED96)
[2] = target: T2, monomeric LAIR-1-His (R&D Systems); assay: BLI (Octet RED96), chimeric mAb on anti-human IgG sensor, monomeric LAIR-1-His in solution
Experimental: Anti-human IgG capture sensors were used to bind to chimeric LAIR-1 mAbs at a density to ensure 1:1 binding to monomeric LAIR-1-His (R&D Systems) in solution at various concentrations. Assay buffer was PBS with 0.05% Tween-20 and regeneration buffer was 10 mM glycine pH 1.5. First, chimeric LAIR-1 mAbs were loaded to sensor. This was followed by association step with LAIR-1-His, and a dissociation step in a separate LAIR-1-His free well. Data was processed using ForteBio data analysis software 9.0. A global fit was used following subtraction of reference wells. The reported average KD values are from at least three independent Octet runs with high confidence of accuracy based on X2 and R2 values. Note the two chimeric versions of 12E10 were tested. Both had relatively low affinity, while the 12E10V2 mAb was removed from usage due to very low affinity.

| Binder | Kd [1] | Kd [2] |
| --- | --- | --- |
| 12E10V1 (antibody, V domains shown) VH: QVQLQQSGAELARPGTSVKLSCKASGYTFTSCGLSWVKQRTGQGLEWIGEIYPSNGNSYYSDKVKDKATLTADKSSSTAYMELRSLTSEDSAVYFCARAYYTNGYYAMDYWGQGTSVTVSS VL: DIVMTQSQKFMSTSVGDRVSITCKASQNVRSAVAWYQQKPGQSPKTLIYLASNRHTGVPDRFTGSGSGTDFTLTISNVQSEDLADYFCLQHWNYPLTFGAGTKLELK | 20.2 nM | – |
| chimeric LAIR-1 mAb 6F4 (antibody, V domains shown) VH: QVQLQQSGAELAKPGASVKLSCKASGYTFTSYWMHWVKQRPGQGLEWIGYINPFSGHTKYNQKFKDKATLTADKSSSTAYMQLSSLTYEDSAVYYCARNFDQWGQGTTLTVSS VL: DIKMTQSPSSMYASLGERVTITCKASQDINSYLSWVQQKPGKSPKTLIDRANRLVDGVPSRFSGSGSGQDYSLTISSLEYEDMGIYYCLQYDEFPPYTFGGGTKLEIK | 12.8 nM | – |
| chimeric 1E11 (antibody, V domains shown, Chimeric mAb (mouse variable, human constant)) VH: QVQLQQSGPELVKPGASVKLSCKASGYTFTSYDINWVKQRPGQGLEWIGWIYPRDGSTKYNEKLKGKATLTVDTSSRTAYMELHSLTSEDSAVYFCARGGYYDYDGYWGQGTLVTVSA VL: DIVMTQAAFSNPVTLGTSASISCRSSKSLLHSNGITYLYWYLQKPGQSPQVLIYQMSSLASGVPDRFSSSGSGTEFTLRISRVEAEDVGVYYCAQNLELPLTFGAGTKLELK | 1.37 nM | < 5 nM |
| chimeric LAIR-1 mAb 4B3 (antibody, V domains shown) VH: QIQLQQSGAELARPGASVKLPCKASDYIFISYGLNWVRQTTGQGLEWIGEIYPRSGHTYYNEKFKGKATLTADKSSSTAYMELRSLTSEDSAVYFCARRSVFYDYDKNGFDYWGQGTTLTVSS VL: DIVMKQSPSSLRVSAGEKVTMSCKSSQSLLNSGNQKNYLAWYQQKPGQPPKLLIYGASTRESGVPDRFTGSGSGTDFALTISSVQAEDLAVYYCQNDHSYPFTFGSGTKLEIK | 32.3 nM | – |
| chimeric LAIR-1 mAb 5A6 (antibody, V domains shown) VH: QVQLQQSGAELARPGASVKLSCKASGYTFTSYGISWVKQRTGQGLEWIGEIYPRRGNTYYNEKFKGKATLTADKSSSTAYMELRSLTSEDSAVYFCARQLFAYWGQGTLVTVSA VL: DIQMTQSPSSLSASLGERVSFSCRASQDIGSSLNWLQQEPDGTIKRLIYATSSLDSGVPKRFSGSRSGSDYSLTISSLESEDFVEYYCLQYDSFPYTFGGGTKLEIK | 23.3 nM | – |
| chimeric LAIR-1 mAb 6B2 (antibody, V domains shown) VH: EVQLVESGGGLVQPKGSLKLSCAASGFSFNINAMNWVRQAPGKGLEWVARIRSKSNNYETYYADSVKDRFTISRDDSESMVYLQMNNLKTEDTAMYYCVRSLWFVYWGQGTLVTVSA VL: DIQMTQSPASQSASLGESVTITCLASQTIGTWLAWYQQKPGKSPQLLIYAATSLADGVPSRFSGSGSGTKFSFKISSLQAEDFVSYYCQQLYSTPLTFGAGTKLELK | 6.53 nM | – |
| 9H6 (antibody, V domains shown) VH: EVQLVESGGGLVQPKGSLKLSCAASGFSFNTHAMNWVRQAPGKGLEWVARIRTKSNNYATYYADSVKDRFIISRDDSENMVYLQMNNLKTEDTAIYYCVRLRGGFLDYWGQGTTLTVSS VL: DIQMTQSPASQSASLGESVTITCLASQTIGTWLAWYQQKPGRSPQLLIYAATSLADGVPSRFSGSGSGTKFSFKINSLQAEDFVSYYCQQLYSTPFTFGSGTKLEIK | 11.6 nM | – |

Results, then the binder that gave them:

| Kd [1] | Kd [2] | Binder |
| --- | --- | --- |
| 3.92 nM | < 5 nM | chimeric 5E1 (antibody, V domains shown, Chimeric mAb) VH: EVQLQQSGPELVKPGASVKISCKASGYSFTGYFMNWVKQSPEKSLEWIGEIHPSTGSIIYNQKFKAKATLTIDKSSSTAYMQLKSLTSEDSAVYYCARFDYSNSFAYWGQGTLVTVSA VL: DIQMTQTTSSLSASLGDRVTISCRASQDISNYLNWYQQKPDGTVKLLIYYTSRLHSGVPSRFSGSGSGTDYSLTISNLEQEDIATYFCQQGNTLPRTFGGGTKLEIK |
| 1.98 nM | < 5 nM | chimeric 11B3 (antibody, V domains shown, Chimeric mAb) VH: EVQLVESGGGLVQPKGSLKLSCAASDFTFNTYAMHWVRQAPGKGLEWVARIRTKSNNYATYYADSVKDRFTISRDDSQSMLYLQMNNLTTEDTAMYYCVRDRYGGAMDYWGQGTSVTVSS VL: DIQMAQSSSSFSVSLGDRVTITCKASEDIYIRLAWYQQKPGNAPRLLISTATSLETGVPSRFSGSGSGKDYTLSITSLQTEDVATYYCQQYWSTPYTFGGGTRLEIK |
| 1.63 nM | < 5 nM | chimeric LAIR-1 mAb 7G3 (antibody, V domains shown, Chimeric mAb) VH: QVQLQQSGPELVKPGASVKLSCKASGYTFTTYDINWVKQRPGQGLEWIGWIYPRDGTTKYNEKFKGKATLTVDTSSTTAYMELHSLTSEDSAVYFCARGGYYDYDGYWGQGTLVTVSA VL: DIVMTQAAFSNPVTLGTSASISCRSSKSLLHSNGITYLYWYLQKPGQSPQVLIYQMSNLASGVPDRFSSSGSGTEFTLRISRVEAEDVGVYYCAQNLEFPLTFGAGTKLELK |
| 4.7 nM | < 5 nM | chimeric 6G6 (antibody, V domains shown, Chimeric mAb) VH: EVQLQQSGPELVKPGASVKISCKASGYTFTTYYMNWVKQSHGKSLEWIGNINPDNGITSYNQKFKGKATLTVDKSSSTAYMELRSLTSEDSAVYYCARGKSLAYWGQGTLVTVSA VL: DIVMTQSHKFMSTSVGDRVSITCKASQNVGTAVAWYQQKPGQSPKLLIYWASIRHTGVPDRFTGSGSGTDFTLTISNVQSEDLADYFCQQYSSHPYTFGGGTKLEIK |
